Changes are numbered by the printed parent chain. Numbers in names are those of the source. One block for each binder: values may come before it.
Assays:
[1] = target: T1, human EGFR expressed on CT26-EGFR cells (human, UniProt P00533 25-1210); experiment: flow cytometry, blocking of EGF-mFc binding to CT26-EGFR cells
T1 construct: whole, on cells; CT26 cells stably expressing human EGFR (Kyinno KC-1451); also called EGFR-expressing cells; 293T-NFAT-Luc2-EGFR cells

[2] = target: T2, PDL1-His (Kyinno, Cat No.: KP-1022) (UniProt Q9NZQ7 19-238, limits assumed); experiment: BLI (ForteBio Octet), PDL1-His as mobile phase
T2 construct: not shown: His tag
T2 sequence (Q9NZQ7 19-238 limits assumed): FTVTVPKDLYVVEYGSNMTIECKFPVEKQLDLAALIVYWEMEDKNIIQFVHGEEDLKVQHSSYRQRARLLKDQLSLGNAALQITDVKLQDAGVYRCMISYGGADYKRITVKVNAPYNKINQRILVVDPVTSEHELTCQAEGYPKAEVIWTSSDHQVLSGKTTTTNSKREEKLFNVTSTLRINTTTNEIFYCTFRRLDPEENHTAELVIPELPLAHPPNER

[3] = target: T1, human EGFR expressed on CT26-EGFR cells; experiment: flow cytometry on CT26-EGFR cells
[4] = target: T3, PDL1-mFc (fusion protein of the human PDL1 extracellular domain and mouse Fc; Kyinno, Cat No.: KP-1008) (human; mouse, UniProt Q9NZQ7 19-238); experiment: flow cytometry, blocking of PDL1-mFc binding to 293T-PD1 cells
T3 construct: extracellular domain; bought; also called human PDL1-mFc; not shown: mouse Fc
T3 sequence (Q9NZQ7 19-238): as the sequence (Q9NZQ7 19-238 limits assumed) above

[5] = target: T4, EGFR-His (Kyinno, Cat No.: KP-1150) (UniProt P00533 25-645, limits assumed); experiment: BLI (ForteBio Octet), EGFR-His as mobile phase
T4 construct: bought; not shown: His tag

[6] = target: T5, human PDL1 expressed on 293T-PDL1 cells (human, UniProt Q9NZQ7 19-290); experiment: flow cytometry on 293T-PDL1 cells
T5 construct: whole, on cells; in the signalling assays PDL1 stood on 293T OS8-hPDL1 cells (Kyinno KC-1148); also called PDL1-expressing cells; 293T OS8-hPDL1 cells
T5 sequence (Q9NZQ7 19-290): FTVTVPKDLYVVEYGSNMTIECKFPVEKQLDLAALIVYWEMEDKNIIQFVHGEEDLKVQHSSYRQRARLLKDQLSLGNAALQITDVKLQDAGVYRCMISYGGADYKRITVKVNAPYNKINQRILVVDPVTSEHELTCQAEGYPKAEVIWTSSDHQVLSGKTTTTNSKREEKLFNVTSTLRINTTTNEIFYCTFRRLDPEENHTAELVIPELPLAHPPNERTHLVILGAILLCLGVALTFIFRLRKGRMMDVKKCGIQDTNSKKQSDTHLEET

[7] = target: T5, human PDL1 expressed on 293T-PDL1 cells; experiment: cell-based or functional assay
[8] = target: T1, human EGFR expressed on CT26-EGFR cells; experiment: cell-based or functional assay
[9] = target: T6, human LAG3 expressed on 293T-LAG3 cells (human, UniProt P18627 23-525); experiment: flow cytometry on 293T-LAG3 cells
T6 construct: whole, on cells; 293T cells stably expressing human LAG3 (Kyinno KC-0214); also called LAG3-expressing cells
T6 sequence (looked up): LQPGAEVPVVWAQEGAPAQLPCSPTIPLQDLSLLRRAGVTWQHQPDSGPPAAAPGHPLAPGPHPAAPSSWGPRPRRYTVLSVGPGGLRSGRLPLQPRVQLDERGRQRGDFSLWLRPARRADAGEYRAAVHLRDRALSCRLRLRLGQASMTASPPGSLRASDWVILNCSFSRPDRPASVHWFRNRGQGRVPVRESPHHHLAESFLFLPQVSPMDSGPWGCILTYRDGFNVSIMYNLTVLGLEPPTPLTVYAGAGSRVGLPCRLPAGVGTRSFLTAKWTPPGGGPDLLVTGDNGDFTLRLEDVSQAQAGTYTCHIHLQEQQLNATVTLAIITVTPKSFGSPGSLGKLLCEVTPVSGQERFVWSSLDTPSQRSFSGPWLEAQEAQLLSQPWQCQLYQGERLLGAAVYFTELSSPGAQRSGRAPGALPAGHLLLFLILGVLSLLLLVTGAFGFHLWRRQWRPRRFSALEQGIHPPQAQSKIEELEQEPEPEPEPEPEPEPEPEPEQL

[10] = target: T7, LAG3-mFc (fusion protein of the human LAG3 extracellular domain and mouse IgG2a-Fc) (human; mouse, UniProt P18627 23-450); experiment: flow cytometry, blocking of LAG3-mFc binding to Daudi cells
T7 construct: extracellular domain; also called human LAG3-mFc; not shown: mouse IgG2a-Fc, Genbank AAH31470.1
T7 sequence (looked up): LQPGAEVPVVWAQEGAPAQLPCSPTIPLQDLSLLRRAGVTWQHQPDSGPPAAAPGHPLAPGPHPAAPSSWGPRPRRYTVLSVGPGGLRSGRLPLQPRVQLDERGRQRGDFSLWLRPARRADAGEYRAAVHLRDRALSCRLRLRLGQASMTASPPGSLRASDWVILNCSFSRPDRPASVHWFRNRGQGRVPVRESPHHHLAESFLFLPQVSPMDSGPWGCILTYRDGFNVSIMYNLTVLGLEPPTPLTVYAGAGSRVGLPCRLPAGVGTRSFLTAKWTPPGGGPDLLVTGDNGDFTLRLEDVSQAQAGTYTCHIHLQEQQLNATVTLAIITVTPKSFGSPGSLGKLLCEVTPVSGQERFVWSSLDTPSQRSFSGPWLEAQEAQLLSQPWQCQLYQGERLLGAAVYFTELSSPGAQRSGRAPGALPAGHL

[11] = target: T8, LAG3-His (ACRO, Cat No.: LA3-H5222) (UniProt P18627 23-450); experiment: BLI (ForteBio Octet), LAG3-His as mobile phase
T8 construct: bought protein; not shown: His tag
T8 sequence (looked up): T7 sequence (looked up)

[12] = target: T9, PD1-His (Kyinno, Cat No.: KP-1023) (UniProt Q15116 25-167, limits assumed); experiment: BLI (ForteBio Octet), PD1-His as mobile phase
T9 construct: bought protein; not shown: His tag
T9 sequence (Q15116 25-167 limits assumed): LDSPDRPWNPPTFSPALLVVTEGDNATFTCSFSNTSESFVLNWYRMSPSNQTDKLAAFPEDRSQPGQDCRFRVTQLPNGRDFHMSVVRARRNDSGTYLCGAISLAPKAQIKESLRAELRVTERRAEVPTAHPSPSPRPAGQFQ

[13] = target: T10, PD1-mFc (fusion protein of the human PD1 extracellular domain and mouse IgG2a-Fc) (human; mouse, UniProt Q15116 25-170); experiment: flow cytometry, blocking of PD1-mFc binding to 293T-PDL1 cells
T10 construct: extracellular domain; not shown: mouse IgG2a-Fc, Genbank AAH31470.1
T10 sequence (Q15116 25-170): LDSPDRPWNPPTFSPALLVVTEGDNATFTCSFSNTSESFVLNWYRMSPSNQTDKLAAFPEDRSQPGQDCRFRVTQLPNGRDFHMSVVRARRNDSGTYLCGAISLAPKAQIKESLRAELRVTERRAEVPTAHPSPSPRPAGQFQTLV

[14] = target: T11, human PD1 expressed on 293T-PD1 cells (human, UniProt Q15116 25-288); experiment: flow cytometry on 293T-PD1 cells
T11 construct: whole, on cells; 293T cells stably expressing human PD1 (Kyinno KC-0204); also called PD1-expressing cells; Jurkat NFAT-PD1-luc cells
T11 sequence (Q15116 25-288): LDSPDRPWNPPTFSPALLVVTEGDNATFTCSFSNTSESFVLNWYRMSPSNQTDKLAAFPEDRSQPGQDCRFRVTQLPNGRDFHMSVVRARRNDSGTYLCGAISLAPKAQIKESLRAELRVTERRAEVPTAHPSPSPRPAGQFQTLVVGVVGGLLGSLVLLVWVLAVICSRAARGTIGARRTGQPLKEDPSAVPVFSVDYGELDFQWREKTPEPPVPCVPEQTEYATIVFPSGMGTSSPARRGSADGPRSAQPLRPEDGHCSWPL

IC50 [1]: 0.0155 µg/mL
Kd [2]: 0.464 nM
koff [2]: 0.000426 s⁻¹
kon [2]: 918000 M⁻¹ s⁻¹
EC50 [3]: 0.0393 µg/mL
IC50 [4]: 0.122 µg/mL
Kd [5]: 4.21 nM
koff [5]: 0.00295 s⁻¹
kon [5]: 701000 M⁻¹ s⁻¹
EC50 [6]: 0.422 µg/mL
IC50, luciferase reporter (procedure of Example 30) [7]: 0.372 nM
IC50, luciferase reporter (procedure of Example 34) [8]: 1.01 nM
B1: KA-2072 H22A12×58E3-CLC01 (bispecific antibody, human IgG1, kappa)
heavy 1: not shown
heavy 2: not shown
light: DIQITQSPSSLSASVGDRVTITCSATSGVSYMHWYQQKPGKAPKRLIYDTSRLASGVPSRFSGSGSGTDYTLTISSLQPEDFATYYCQQWSSNPPYTFGQGTRLEIKRTVAAPSVFIFPPSDEQLKSGTASVVCLLNNFYPREAKVQWKVDNALQSGNSQESVTEQDSKDSTYSLSSTLTLSKADYEKHKVYACEVTHQGLSSPVTKSFNRGEC
notes: EGFR×PDL1 bispecific; first heavy chain targets EGFR (hIgG1 Knob), second targets PDL1 (hIgG1 Hole); common light chain 1

EC50 [9]: 0.0674 µg/mL
IC50 [10]: 0.476 µg/mL
Kd [11]: 0.174 nM
koff [11]: 0.000153 s⁻¹
kon [11]: 881000 M⁻¹ s⁻¹
B2: KA-1782 H28G2-7V4-hIgG4M (antibody, V domains shown)
VH: QVQLQESGPGLVKPSETLSLTCTVSGYSFTSGYYWNWIRQPPGKGLEWIGYVSYFGTANYNPALKNRVTISRDTSKNQFSLKLSSVTAADTAVYYCARGEEWDWSFDVWGQGTTVTVSS
VL: DIQITQSPSSLSASVGDRVTITCSATSGVSYMHWYQQKPGKAPKRLIYDTSRLASGVPSRFSGSGSGTDYTLTISSLQPEDFATYYCQQWSSNPPYTFGQGTRLEIKR
notes: anti-LAG3 humanized antibody, human IgG4 (S228P) / kappa

Kd [12]: 6.96 nM
koff [12]: 0.00143 s⁻¹
kon [12]: 205000 M⁻¹ s⁻¹
IC50 [13]: 0.158 µg/mL
EC50 [14]: 0.193 µg/mL
B3: KA-1807 H107D12-10V4-hIgG4M (antibody, V domains shown)
VH: QVQLVESGGGLVKPGGSLRLSCAASGFTFSDYGMHWIRQAPGKGLEWVAYISSGSYTIYYADTVRDRFTISRDSAKNSLYLQMNSLRAEDTAVYYCVRRGPGYFGSTALDYWGQGTTVTVSS
VL: B2 VL
notes: anti-PD1 humanized antibody, human IgG4 (S228P) / kappa; also called KA-1807 H107D12-10V4-hlgG4M

IC50 [1]: 0.0123 µg/mL
Kd [2]: 0.602 nM
koff [2]: 0.00126 s⁻¹
kon [2]: 2.09e+06 M⁻¹ s⁻¹
EC50 [3]: 0.0358 µg/mL
IC50 [4]: 0.129 µg/mL
Kd [5]: 5.64 nM
koff [5]: 0.00449 s⁻¹
kon [5]: 796000 M⁻¹ s⁻¹
EC50 [6]: 0.521 µg/mL
IC50, luciferase reporter (procedure of Example 30) [7]: 0.429 nM
IC50, luciferase reporter (procedure of Example 34) [8]: 1.05 nM
B4: KA-2073 H22A12×58E3-CLC02 (bispecific antibody, human IgG1, kappa)
heavy 1: not shown
heavy 2: not shown
light: DIQLTQSPSTLSASVGDRVTITCSATSSIGYMHWYQQKPGTSPKRWIYDTSKLASGVPSRFSGSGSGTEYTLTISSLQPDDFATYYCQLWSSDPPYTFGQGTRLEIKRTVAAPSVFIFPPSDEQLKSGTASVVCLLNNFYPREAKVQWKVDNALQSGNSQESVTEQDSKDSTYSLSSTLTLSKADYEKHKVYACEVTHQGLSSPVTKSFNRGEC
notes: EGFR×PDL1 bispecific; first heavy chain targets EGFR (hIgG1 Knob), second targets PDL1 (hIgG1 Hole); common light chain 3

IC50 [13]: 0.256 µg/mL
EC50 [14]: 0.265 µg/mL
B5: KA-1773 M107D12-10CLC1-hIgG4M (antibody, V domains shown)
VH: B3 VH with V5K, R19K, I37V, G42E, S78T, Y80F, N84T, A88S, V93M, V118L
VL: QIVLTQSPAIMSASPGEKVTMTCSATSGVSYMHWYQQKSGTSPKRWIYDTSRLASGVPARFSGSGSGTSYSLTISSMEAEDAATYYCQQWSSNPPYTFGSGTKLEIKR
notes: anti-PD1 chimeric antibody, human IgG4 (S228P) / kappa

EC50 [9]: 0.118 µg/mL
IC50 [10]: 0.805 µg/mL
B6: KA-1728 M28G2-7CLC1-hIgG4M (antibody, V domains shown)
VH: DVKLQESGPGLVKPSQSLSLTCSVTGYSFTSGYYWNWIRLFPGNKLEWMGYVSYFGTNNYNPSLKNRFSITRDTSKNQFFLKLNSVSTEDTATYYCARGEEWDWSFDVWGTGTTVTVSS
VL: B5 VL

IC50 [13]: 0.218 µg/mL
EC50 [14]: 0.272 µg/mL
B7: KA-1774 M107D12-10CLC2-hIgG4M (antibody, V domains shown)
VH: B3 VH with V5K, R19K, I37V, G42E, S78T, Y80F, N84T, A88S, V93M, V118L
VL: B5 VL with T26S, G28S, R52K

EC50 [9]: 0.0649 µg/mL
IC50 [10]: 0.563 µg/mL
B8: KA-1733 M28G2-7CLC2-hIgG4M (antibody, V domains shown)
VH: B6 VH
VL: B5 VL with T26S, G28S, R52K
